Tested on: Escherichia coli TOP10
Experiment: shrunken log2 fold change of peptide-encoding DNA abundance (4.5 h post-induction vs induction); higher = less antimicrobial activity (less host growth inhibition)
Conditions: time post-induction: 4.5 h; library: site-saturation at positions 5, 18, 19, 20
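Note: peptides expressed intracellularly from a pBAD plasmid library in pooled LB shake-flask culture, induced with 0.3% L-arabinose, DNA abundance read by NGS, three biological replicates, DESeq2 with apeglm shrinkage.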

Sequence	shrunken log2 fold change
RRIRWRPPRLPRPRPRPDNNPRP	-0.0431
RRIRSRPPRLPRPRPRPHWWPRP	0.359
RRIRWRPPRLPRPRPRPRTPPRP	0.559
RRIRYRPPRLPRPRPRPAVCPRP	-0.0135
RRIRCRPPRLPRPRPRPTMPPRP	-0.281
RRIRDRPPRLPRPRPRPIFDPRP	0.0515
RRIRVRPPRLPRPRPRPIWRPRP	0.207
RRIRNRPPRLPRPRPRPNAQPRP	-0.119
RRIRVRPPRLPRPRPRPHITPRP	-0.643
RRIRARPPRLPRPRPRPERVPRP	0.577
RRIRQRPPRLPRPRPRPIVPPRP	0.053
RRIRERPPRLPRPRPRPERWPRP	-0.00254
RRIRCRPPRLPRPRPRPQTSPRP	-0.209
RRIRCRPPRLPRPRPRPAMYPRP	-0.265
RRIRNRPPRLPRPRPRPRFVPRP	-0.384
RRIRWRPPRLPRPRPRPCPQPRP	-0.134
RRIRSRPPRLPRPRPRPMFPPRP	-0.22
RRIRYRPPRLPRPRPRPHYIPRP	-0.318
RRIRWRPPRLPRPRPRPKIPPRP	0.0948
RRIRPRPPRLPRPRPRPVEYPRP	-0.156
RRIRSRPPRLPRPRPRPEWVPRP	0.146
RRIRHRPPRLPRPRPRPHMMPRP	-0.321
RRIRPRPPRLPRPRPRPYKMPRP	-0.605

Sequence	shrunken log2 fold change
RRIRLRPPRLPRPRPRPTGEPRP	0.205
RRIRYRPPRLPRPRPRPSQSPRP	-0.804
RRIRARPPRLPRPRPRPTGLPRP	0.298
RRIRCRPPRLPRPRPRPTQMPRP	0.565
RRIRIRPPRLPRPRPRPMVKPRP	-0.0157
RRIRNRPPRLPRPRPRPTCPPRP	0.059
RRIRMRPPRLPRPRPRPCRTPRP	-0.129
RRIRSRPPRLPRPRPRPDEFPRP	-0.149
RRIRSRPPRLPRPRPRPPLKPRP	0.0467
RRIRMRPPRLPRPRPRPIMKPRP	-0.24
RRIRQRPPRLPRPRPRPKNNPRP	-0.616
RRIRARPPRLPRPRPRPNSKPRP	-0.155
RRIRERPPRLPRPRPRPFDKPRP	-1.7
RRIRLRPPRLPRPRPRPTSLPRP	-0.112
RRIRHRPPRLPRPRPRPPRYPRP	0.0399
RRIRVRPPRLPRPRPRPNRSPRP	-0.0169
RRIRCRPPRLPRPRPRPLSKPRP	-0.103
RRIRFRPPRLPRPRPRPCAMPRP	-0.561
RRIRYRPPRLPRPRPRPVKEPRP	0.00241
RRIRDRPPRLPRPRPRPDDVPRP	0.276
RRIRWRPPRLPRPRPRPMMKPRP	0.155
RRIRIRPPRLPRPRPRPRELPRP	-0.019
RRIRCRPPRLPRPRPRPNTYPRP	-0.774

Sequence	shrunken log2 fold change
RRIRPRPPRLPRPRPRPNPWPRP	0.277
RRIRGRPPRLPRPRPRPYHKPRP	-0.331
RRIRCRPPRLPRPRPRPHACPRP	-0.281
RRIRYRPPRLPRPRPRPITHPRP	-0.211
RRIRARPPRLPRPRPRPHNLPRP	-0.201
RRIRPRPPRLPRPRPRPFIQPRP	-0.671
RRIRNRPPRLPRPRPRPCQEPRP	0.15
RRIRWRPPRLPRPRPRPCHMPRP	-0.0433
RRIRCRPPRLPRPRPRPVHEPRP	-0.073
RRIRERPPRLPRPRPRPVMEPRP	-0.0566
RRIRFRPPRLPRPRPRPCPCPRP	-0.21
RRIRLRPPRLPRPRPRPVSAPRP	0.0663
RRIRKRPPRLPRPRPRPKIKPRP	0.447
RRIRCRPPRLPRPRPRPPHEPRP	1.23
RRIRMRPPRLPRPRPRPCVSPRP	-0.0589
RRIRKRPPRLPRPRPRPHPFPRP	0.188
RRIRHRPPRLPRPRPRPGVVPRP	-0.227
RRIRNRPPRLPRPRPRPVPRPRP	0.0283
RRIRERPPRLPRPRPRPCFIPRP	-0.73
RRIRGRPPRLPRPRPRPGGNPRP	0.0695
RRIRPRPPRLPRPRPRPNKMPRP	-0.17
RRIRCRPPRLPRPRPRPTCVPRP	-0.0603
RRIRMRPPRLPRPRPRPKSVPRP	0.0926

Sequence	shrunken log2 fold change
RRIRARPPRLPRPRPRPGGDPRP	0.604
RRIRWRPPRLPRPRPRPRYGPRP	0.134
RRIRIRPPRLPRPRPRPHASPRP	-0.012
RRIRGRPPRLPRPRPRPKGKPRP	1.16
RRIRYRPPRLPRPRPRPHFAPRP	-0.284
RRIRWRPPRLPRPRPRPVHGPRP	0.492
RRIRGRPPRLPRPRPRPPFKPRP	0.659
RRIRYRPPRLPRPRPRPCNEPRP	0.0341
RRIRYRPPRLPRPRPRPIMAPRP	-0.708
RRIRWRPPRLPRPRPRPMQMPRP	1.53
RRIRIRPPRLPRPRPRPQQGPRP	-0.295
RRIRARPPRLPRPRPRPNHMPRP	-0.299
RRIRLRPPRLPRPRPRPQFEPRP	-0.12
RRIRNRPPRLPRPRPRPEAGPRP	-0.0775
RRIRPRPPRLPRPRPRPPDKPRP	0.266
RRIRLRPPRLPRPRPRPTRWPRP	0.456
RRIRVRPPRLPRPRPRPTYSPRP	-0.0431
RRIRNRPPRLPRPRPRPWVPPRP	-1.03
RRIRYRPPRLPRPRPRPMACPRP	-0.000921
RRIRFRPPRLPRPRPRPCAYPRP	2.21
RRIRDRPPRLPRPRPRPEPTPRP	0.885
RRIRDRPPRLPRPRPRPVCFPRP	0.599
